From WO2018134389A1 (dated 2018)
Positions count from the first letter of the chain named. Names may count otherwise.

B1: DC-SIGN CRD single point mutant S360A, stably expressed on HEK293T cells (receptor)
chain: MSDSKEPRLQQLGLLEEEQLRGLGFRQTRGYKSLAGCLGHGPLVLQLLSFTLLAGLLVQVSKVPSSISQEQSRQDAIYQNLTQLKAAVGELSEKSKLQEIYQELTQLKAAVGELPEKSKLQEIYQELTRLKAAVGELPEKSKLQEIYQELTWLKAAVGELPEKSKMQEIYQELTRLKAAVGELPEKSKQQEIYQELTRLKAAVGELPEKSKQQEIYQELTRLKAAVGELPEKSKQQEIYQELTQLKAAVERLCHPCPWEWTFFQGNCYFMSNSQRNWHDSITACKEVGAQLVVIKSAEEQNFLQLQSSRSNRFTWMGLSDLNQEGTWQWVDGSPLLPSFKQYWNRGEPNNVGEEDCAEFAGNGWNDDKCNLAKFWICKKSAASCSRDEEQFLSPAPATPNPPPA
notes: whole, on cells
B2: DC-SIGN CRD single point mutant D367A, stably expressed on HEK293T cells (receptor)
chain: B1 chain with A360S, D367A
notes: whole, on cells
B3: DC-SIGN CRD single point mutant V351A, stably expressed on HEK293T cells (receptor)
chain: B1 chain with V351A, A360S
notes: whole, on cells
B4: Sambucus Nigra Agglutinin (other)
chain: VTPPVYPSVSFNLTGADTYEPFLRALQEKVILGNHTAFDLPVLNPESQVSDSNRFVLVPLTNPSGDTVTLAIDVVNLYVVAFSSNGKSYFFSGSTAVQRDNLFVDTTQEELNFTGNYTSLERQVGFGRVYIPLGPKSLDQAISSLRTYTLTAGDTKPLARGLLVVIQMVSEAARFRYIELRIRTSITDASEFTPDLLMLSMENNWSSMSSEIQQAQPGGIFAGVVQLRDERNNSIEVTNFRRLFELTYIAVLLYGCAPVTSSSYSNNAIDAQIIKMPVFRGGEYEKVCSVVEVTRRISGWDGLCVDVRYGHYIDGNPVQLRPCGNECNQLWTFRTDGTIRWLGKCLTASSSVMIYDCNTVPPEATKWVVSIDGTITNPHSGLVLTAPQAAEGTALSLENNIHAARQGWTVGDVEPLVTFIVGYKQMCLRENGENNFVWLEDCVLNRVQQEWALYGDGTIRVNSNRSLCVTSEDHEPSDLIVILKCEGSGNQRWVFNTNGTISNPNAKLLMDVAQRDVSLRKIILYRPTGNPNQQWITTTHPA
notes: also called SNA

Key:
[1] = target: T1, Recombinant HIV-1 IIIB gp120 derived from CHO cells (ImmunoDx) (HIV-1 IIIB, UniProt P04578 33-511); experiment: flow cytometry on HEK293T point-mutant transfectants
T1 construct: also called HIV-1 IIIB gpl20; HIV-1 gp120

[2] = target: T1, Recombinant HIV-1 IIIB gp120 derived …; experiment: lectin-functionalized plate, labelled glycoprotein, fluorescence read-out

Row | Binder | binding result [1] | binding result [2]
1 | B1 | binds | 
2 | B2 | binds | 
3 | B3 | binds | 
4 | B4 |  | no binding (tested: 10, 2 and 0.4 μg/ml)
